# According to patent US20220144922A1 (Adimab, published 2022):
# B1: ADI-15612 (antibody, V domains shown)
# VH: EVQLLESGGDLVQPGGSLRLSCAASGFPFSSHSMNWVRQAPGKGLEWISYISGGSDTIQYADSVKGRFTISRDNVKNSLYLQMNSLRAEDTAVYYCARDQYIWNYVEPLDYWGQGTLVTVSS
# VL: DIQMTQSPSSLSASVGDRVTITCRASQDISYYLGWYQQKAGKAPKLLIYAVSNLQTGVPSRFSGSGSGTDFTLTISSLQPEDFATYYCLQDHTCPWTFGQGTKVEIK
# notes: IgG
# B2: ADI-15627 (antibody, V domains shown)
# VH: EVQLVESGGGVVQPGRSLRLSCAASGFTFSDYAMHWVRQAPGKGLEWVAVIWYDGGNKYYADSAKGRFTISRDNSKNTLYLQMNSLRAEDTAVYYCAKDRGSIWNVGDGMDVWGQGTTVTVSS
# VL: QPVLTQPPSVSVAPGQTARVTCGGNNIGAKSVHWYQQKPGQAPVLVVDDDTDRPSGIPERFSGSNSGNTATLTISRVEAGDEADYYCQVWDASIGPLYVFGTGTKLTVL
# notes: IgG; also called Antibody Number 192
# B3: ADI-15005 (antibody, V domains shown)
# VH: QVQLVESGPALVKPTQTLTLTCSFSGFSLTTRRMCVSWIRQTPGKALEWLARIDWDDDKDYSTSLKTRLTISKDTSKNQVVLTMTNMDPVDTATYYCARTHIYDSSGYYLYYFDYWGQGTLVTVSS
# VL: DIVLTQSPSSLSASIGDRVTITCRASQTIASYLNWYQQKPGKAPELLIYAATNLQSGVPSRFSGSGSGTDFTLTISSLRPEDFASYYCQQSYSSPWTFGQGTKVDIK
# notes: IgG; also called Antibody Number 124
# B4: ADI-15641 (antibody, V domains shown)
# VH: QVQLVESGGGVVQPGRSLRVSCAASGFDFSNYAMHWVRQAPGKGLEWVALISYDGNNKVYADSVKGRFTVSRDNSKNTLYLQMNSLRPEDTAVIYCAKDGYLAPDFWGQGTLVTVSS
# VL: QSVLTQPASVSGSPGQSIIISCTGTSSDVGEYDYVSWYQHHPHKAPKLIIYEVSNRPSGVSNRFSGSKSGNTASLTISGLQAEDEADYYCSSYTSSSGQAFGTGTKVTVL
# notes: IgG; also called Antibody Number 205
# B5: ADI-15619 (antibody, V domains shown)
# VH: QVQLVQSGAEAKKPGASVKVSCTASGYTFTNDINWVRQATGQGLEWMGWMNPNNGHTGYGQKFEDRVTLTRDSSRSTAYMELSSLRFEDTAVYYCVYNFWSDSSVSWGRGTLVTVSS
# VL: QSVVTQPPSVSGAPGQSVAISCTGSSSNIGPAYDVHWYQQTPGAAPKLLIYGDSNRPSGVPDRFSTSKSGTSASLAITGLQAEDEADYYCQSFDSSLRGYVFGTGTKVTVL
# notes: IgG
# B6: ADI-15653 (antibody, V domains shown)
# VH: QVQLVQSGAEVKKPGSSVKVSCKSSGGTFSNYIISWVRQAPGQGLEWMGGIVPLSGTTDYAQKFQGRVTITADKSTTTAYMELRTLRPEDTAVYYCARGSGGSNAYFDPWGQGTLVTVSS
# VL: QSVVTQPPSVSVAPGKTAKITCGGNNIGSKSVYWYQQKPGQAPVLVMYYDTYRPSGIPERFSGSNSGNSATLTISRVDAGDEADYYCQVWDSRSDHPYVFGSGTKLTVL
# notes: IgG
# B7: ADI-15578 (antibody, V domains shown)
# VH: QVQLVQSGGGLVQPGGSLRLSCVGSGFTFSTYSMNWVRQAPGKGLEWVSHISSSSVTMYYADFVKGRFTISRDNAKNSLYLQMTSLRAEDTAVYYCARDAGPVWSGYYDYGMDVWGQGTTVTVSS
# VL: ETTLTQSPATLSLSPGERATLSCRASQSVSSLLAWYQQKPGQAPRLLIFDASKRATGIPARFSGSGSGTDFTLTISSLEPEDFAVYYCQQRYNWPPLTFGGGTKVEIK
# notes: IgG
# B8: ADI-15633 (antibody, V domains shown)
# VH: QVQLVQSGAEVKKPGESLKISCKGSGYTFRMYWIGWARLLPGKGLEWIGIIYPGDSDTRYNPSLQGQVTMSVDKSINTAYLQWGSLKASDSAIYYCARLRLHPQSGMDVWGQGTLVTVSS
# VL: NFMLTQPHSVSESPGKTVVISCTRSSGSIAGYYVQWYQHRPGSSPTTVIYEDDQRPSGVPDRFSGSVDSSSNSASLTISGLKTEDEADYYCQSYDNAIWVFGGGTKLTVL
# notes: IgG
# B9: ADI-15576 (antibody, V domains shown)
# VH: QVQLVQSGAAVKKPGESLKISCKGFGYSFTKYWIGWVRQVPGKGLEWIGIISPTDSNTRYSPSFRGQVTMSADKSISAAYLQWSSLKASDTAMYYCARHSSPYSSGWYGDTYFFDSWGQGTLVTVSS
# VL: QPVLTQPPSASGTPGQRVTISCSGSNSNIGTNTVNWYQQLPGTAPKVLIHNNNERPSGVPDRFSGSKSGTSASLAISGLQSEDEADYYCAAWDDSLRGYVFGTGTKVTVL
# notes: IgG; also called Antibody Number 146
# B10: ADI-15640 (antibody, V domains shown)
# VH: QVQLVESGPALVKPTQTLTLTCAFSGFSLTTRGMSVSWIRQPPGKALEWLARIDWDDDKYYSTSLKTRLTISKDTSKNQVVLTMSNMDPVDTATYYCARASLYDSGGYYLFFFDYWGQGTLVTVSS
# VL: DIVMTQSPSSLSASVGDRVTITCRASQSIGSYLNWYQQKPGKVPKLLIYAASNLQGGVPSRFRGSGSGTDFTLTISNLQPEDFASYYCQLSYSSLWTFGQGTKVEIK
# notes: IgG; also called Antibody Number 204
# B11: ADI-15573 (antibody, V domains shown)
# VH: QVQLVQSGAEVKKPGASVKISCKTSGYTFTSSVISWVRQAPGQGLEWVGWITGHRSSTNYAQRLQGRVTMTTDTSTSTAYMELRSLRSDDTAVYYCARADGGSGSYYSAWGQGTLVTVSS
# VL: SYELTQPPSASVAPGKTARISCGGNNIGTKSVHWYQQKPGQAPVLVIYHDSHRPSGIPERFSGSNSGNTATLTISRVEAGDEADYYCQLWDSSSDSHVFGTGTKLTVL
# notes: IgG; also called Antibody Number 143
# B12: ADI-15644 (antibody, V domains shown)
# VH: QVQLVQSGAEVKKPGSSVKVSCRTSGGTFSSFSISWVRQAPGQGLEWMGGIIPIFGTANYAKKFQGRVTITADESTDTAYMELRSLRSEDTAVYYCARDSPKISATEYYFDYWGQGTLVTVSS
# VL: DIQVTQSPSTLSASVGDRVTITCRASQSFTSWLAWYQQKPGKAPKLLIYKASTLDSGVPSRFSGSGSGTEFTLTINGLQPDDFATYYCQHYDSYSGTFGQGTRLEIK
# notes: IgG
# B13: ADI-15626 (antibody, V domains shown)
# VH: EVQLVESGAEVKKPGSSVKVSCKASGGTFSSYEISWVRQAPGQGLEWMGGINPMFGAANYAQKFQDRVTIIADKSTGTVYMELSSLRSEDTALYYCARERYPSTDDYYRSGRYYGEWGQGTTVTVSS
# VL: ETTLTQSPSTLSASVGDRVTITCRASQSIRSWLAWYQQKPGKAPKLLIYRASTSDSGVPSRFSGSGSGTEFTLTISSLQPDDFAIYYCQQYNSIPVTFGQGTKLEIK
# notes: IgG
# B14: ADI-15604 (antibody, V domains shown)
# VH: EVQLLESGGGLVKPGGSLRLSCGASGFKFSDYYMSWIRQAPGKGLEWVSHISSSNSYINYADSVKGRFTISRDNARNSLSLQMNSLRAEDTAVYYCARFPLYCSRSSCSHYVDYWGQGTLVTVSS
# VL: QSVLTQPPSVSGAPGQRVTISCTGSGSNIGAGYDVHWYQQLPGTAPKLLIYDNNNRPSGVPDRFSGSKSGTSASLAITGLQVEDEADYYCQSYDRSLSVVFGGGTKVTVL
# notes: IgG; also called Antibody Number 170
# B15: ADI-15666 (antibody, V domains shown)
# VH: QVQLQQWGAGLLKPSETLSLTCGVSDGSFSAYYWNWIRQSPGKGLEWIGETNPSENTNYSPSLKNRVTISADRSANQFSLRLRSVTAADTGVYYCARGRGYYGSTTDYRGLHWFDPWGQGTLVTVSS
# VL: ETTLTQSPVTLSVSPGERATLSCRASQSVSFNLAWYQQKPGQAPRLLIYGASTRVTNLPLRFSGSGSGTEFTLTISSLQSEDFAVYYCQQYNNWPRTFGQGTKLEIK
# notes: IgG; also called Antibody Number 230
# B16: ADI-15561 (antibody, V domains shown)
# VH: QVQLVQSGAEVKKPGSSVKVSCKASGGTFSSYAINWVRQAPGQGLEWMGGIIPAFGTTIYAQRFQDRVTITADKSTSTAYMELRSLRSEDTAVYYCARSPPFWSDYSRGWFDPWGQGTLVTVSS
# VL: ETTLTQSPSALSASVGDRVTITCRASQTISGYLNWYQQKPGKAPKLLIYAASSLQSGVPSRFSGSSAGTDFTLSISNLQPEDFATYYCQQSYTTPWTFGQGTKVEIK
# notes: IgG; also called Antibody Number 132
# B17: ADI-15629 (antibody, V domains shown)
# VH: EVQLVESGGGLVQPGGSLRLSCAASGFTFSDFAMSWVRQAPGKGLEWVSLIKSSDYAYYADSVRGRFTISRDNSKNTLYLRMNSLRADDTAVYYCAKDADFWSGDSYNGGYNFDSWGQGTLVTVSS
# VL: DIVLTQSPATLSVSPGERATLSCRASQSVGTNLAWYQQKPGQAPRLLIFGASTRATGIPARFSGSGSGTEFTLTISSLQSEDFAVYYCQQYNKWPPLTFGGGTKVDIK
# notes: IgG
# What was measured:
# [1] = target: T1, postfusion RSV F ectodomain, subtype B (respiratory syncytial virus subtype B); assay: BLI, IgG on sensor
# T1 construct: extracellular domain; also called Postfusion subtype B
# Procedure: (§1) IgG binding to DS-Cav1 and FA FP was determined by BLI measurements using a FortéBio Octet HTX instrument (Pall Life Sciences). […] Data was analyzed using the ForteBio Data Analysis Software 7. The data was fit to a 1:1 binding model to calculate an association and dissociation rate, and KD was calculated using the ratio kd/kₐ.
# [2] = target: T2, postfusion RSV F ectodomain (F ΔFP), subtype A (respiratory syncytial virus subtype A, UniProt P03420 26-109; P03420 147-524); assay: BLI, IgG on sensor
# T2 construct: extracellular domain; also called Postfusion subtype A
# Procedure: as §1
# [3] = target: T3, prefusion-stabilized RSV F ectodomain (DS-Cav1), subtype B (respiratory syncytial virus subtype B); assay: BLI, IgG on sensor
# T3 construct: extracellular domain; also called Prefusion subtype B
# Procedure: as §1
# [4] = target: RSV F protein of subtype B strain 18537, on virus (respiratory syncytial virus subtype B …, UniProt P13843 26-574); assay: cell-based or functional assay
# [5] = target: RSV F protein of subtype A strain A2, on virus (respiratory syncytial virus subtype A …, UniProt P03420 26-574); assay: cell-based or functional assay
binder,measurement,setting,value
B1,Kd,[1],0.353 nM
same,Kd,[2],0.416 nM
same,Kd,[3],0.157 nM
same,Neut IC50 (ug/ml) subtype B,[4],0.164 µg/mL
same,Neut IC50 (ug/ml) subtype A,[5],0.053 µg/mL
B2,Kd,[1],0.137 nM
same,Kd,[2],0.158 nM
same,Kd,[3],1.61 nM
same,Neut IC50 (ug/ml) subtype B,[4],2.42 µg/mL
same,Neut IC50 (ug/ml) subtype A,[5],2.17 µg/mL
B3,Kd,[1],0.253 nM
same,Kd,[2],0.237 nM
same,Kd,[3],1.4 nM
same,Neut IC50 (ug/ml) subtype B,[4],2.53 µg/mL
same,Neut IC50 (ug/ml) subtype A,[5],2.16 µg/mL
B4,Kd,[1],0.136 nM
same,Kd,[2],0.161 nM
same,Kd,[3],0.136 nM
same,Neut IC50 (ug/ml) subtype B,[4],0.483 µg/mL
same,Neut IC50 (ug/ml) subtype A,[5],0.184 µg/mL
B5,Kd,[1],2.21 nM
same,Kd,[2],1.76 nM
same,Kd,[3],6.91 nM
same,Neut IC50 (ug/ml) subtype B,[4],0.377 µg/mL
same,Neut IC50 (ug/ml) subtype A,[5],1.45 µg/mL
B6,Kd,[1],0.39 nM
same,Kd,[2],0.312 nM
same,Neut IC50 (ug/ml) subtype B,[4],> 10 µg/mL
same,Neut IC50 (ug/ml) subtype A,[5],> 10 µg/mL
B7,Kd,[1],1.54 nM
same,Kd,[2],1.27 nM
B8,Kd,[1],0.111 nM
same,Kd,[2],0.104 nM
same,Kd,[3],0.896 nM
same,Neut IC50 (ug/ml) subtype B,[4],> 10 µg/mL
same,Neut IC50 (ug/ml) subtype A,[5],12.8 µg/mL
B9,Kd,[1],0.179 nM
same,Kd,[2],0.237 nM
same,Neut IC50 (ug/ml) subtype B,[4],9.86 µg/mL
same,Neut IC50 (ug/ml) subtype A,[5],6.08 µg/mL
B10,Kd,[1],0.196 nM
same,Kd,[2],0.169 nM
same,Kd,[3],1.49 nM
same,Neut IC50 (ug/ml) subtype B,[4],4.82 µg/mL
same,Neut IC50 (ug/ml) subtype A,[5],> 10 µg/mL
B11,Kd,[1],0.199 nM
same,Kd,[2],0.198 nM
same,Neut IC50 (ug/ml) subtype B,[4],1.67 µg/mL
same,Neut IC50 (ug/ml) subtype A,[5],6.25 µg/mL
B12,Kd,[1],0.194 nM
same,Kd,[2],0.301 nM
same,Neut IC50 (ug/ml) subtype B,[4],> 10 µg/mL
same,Neut IC50 (ug/ml) subtype A,[5],> 10 µg/mL
B13,Kd,[1],0.653 nM
same,Kd,[2],0.546 nM
same,Kd,[3],3.39 nM
same,Neut IC50 (ug/ml) subtype B,[4],> 10 µg/mL
same,Neut IC50 (ug/ml) subtype A,[5],14.2 µg/mL
B14,Kd,[1],1.77 nM
same,Kd,[3],0.46 nM
same,Neut IC50 (ug/ml) subtype B,[4],0.082 µg/mL
same,Neut IC50 (ug/ml) subtype A,[5],0.081 µg/mL
B15,Kd,[1],0.546 nM
same,Kd,[2],0.499 nM
same,Neut IC50 (ug/ml) subtype B,[4],> 10 µg/mL
same,Neut IC50 (ug/ml) subtype A,[5],1.41 µg/mL
B16,Kd,[1],1.08 nM
same,Kd,[2],0.591 nM
same,Kd,[3],8.62 nM
same,Neut IC50 (ug/ml) subtype B,[4],22.4 µg/mL
same,Neut IC50 (ug/ml) subtype A,[5],5.63 µg/mL
B17,Kd,[1],0.213 nM
same,Kd,[2],0.228 nM
same,Kd,[3],0.36 nM
same,Neut IC50 (ug/ml) subtype B,[4],0.088 µg/mL
same,Neut IC50 (ug/ml) subtype A,[5],0.085 µg/mL
